We go through 2 molecules from patent US20130266582A1 (YEDA RESEARCH AND DEVELOPMENT, published 2013).

Data set [1] concerns the molecule itself. The data set can be described thus: analytical size exclusion chromatography (Superdex 200) of immunopurified Flag-DAPk. From the text: Immunopurified Flag-DAPk was loaded onto an analytical Superdex™ 200 10/300 (GE Healthcare) gel-filtration column equilibrated with TBS. The eluting protein was detected by UV absorbance at 280 nm. Fractions were collected using the AKTA Prime fraction collector and analyzed by Western blot with anti-Flag antibodies. The migration position of the fractions containing Flag-DAPk was assigned relative to the migration position of Gel Filtration Calibration HMW standards (GE Healthcare) on the same column.
It elutes in two clearly defined peaks corresponding to ˜640 kDa and ˜320 kDa (FIG. 1D). […] Furthermore, the absence of a peak at the 160 kDa size range excluded the existence of monomers under native conditions. Fractions were collected at indicated elution points and submitted to western blot analysis, confirming DAPk identity at the selected peaks (FIG. 1E).
Background: In gel filtration, larger molecules generally elute earlier.

Data set [2] has as its target T1, HA-DAPk (N-terminal hemaglutinin-tagged human full-length death-associated protein kinase) (human, UniProt P53355 1-1430).
T1 construct: also called HA-DAPk (WT); DAPk WT; not shown: N-terminal HA (hemaglutinin) tag
In words: co-immunoprecipitation with anti-Flag beads from co-transfected HEK 293T cells, western blot (FIG. 2B). The protocol: FIG. 2A, Schematic representation of the different DAPk constructs utilized for mapping DAPk homo-oligomerization. The indicated domains: Kinase domain (KD); Ca⁺²/Calmodulin binding region (CaM); Ankyrin repeats (AK); P-Loop; Ras of complex proteins domain (ROC); C-terminal of ROC domain (COR); Death domain (DD); and Serine (Ser) rich tail. […] Immunoprecipitation with anti-Flag beads (IP-α-Flag) was performed and immuno-complexes and cell extracts were analyzed by western blot. FIG. 2C, Cells co-transfected with Flag-DAPk and one of the different HA-tagged DAPk constructs, namely HA-DAPk (WT), HA-ΔROC—a deletion between amino acids 667-954; HA-ΔKinase—a N-terminal deletion (1-285); and ΔROC/ΔKinase—deletion of both KD (1-285) and ROC domain (667-954). Immunoprecipitation and western blot were performed as in B. FIG. 2D, Cells co-transfected with Flag-ROC and HA-ROC; HA-ROC and Flag-ROC-Δ-P-loop; Flag-ROC and HA-DAPk (WT); Flag-ROC-Δ-P-Loop and HA-DAPk (WT); or HA-ROC and DAP1-Flag.
Immunoprecipitation with anti-Flag beads (IP-α-Flag) was performed and immuno-complexes and cell extracts were analyzed by western blot. […] Thus, ROC fragment by itself is sufficient to bind the full length DAPk. Also the ROC fragments interacted with each other (FIG. 2D). […] Together the experiments in FIG. 2B-D established the role of the ROC domain in mediating homo-oligomerization.
(In general: In western blotting, separated proteins are transferred to a membrane and probed.)

B1: Flag-DAPk (N-terminal Flag-tagged human full-length death-associated protein kinase) (enzyme)
chain: MTVFRQENVDDYYDTGEELGSGQFAVVKKCREKSTGLQYAAKFIKKRRTKSSRRGVSREDIEREVSILKEIQHPNVITLHEVYENKTDVILILELVAGGELFDFLAEKESLTEEEATEFLKQILNGVYYLHSLQIAHFDLKPENIMLLDRNVPKPRIKIIDFGLAHKIDFGNEFKNIFGTPEFVAPEIVNYEPLGLEADMWSIGVITYILLSGASPFLGDTKQETLANVSAVNYEFEDEYFSNTSALAKDFIRRLLVKDPKKRMTIQDSLQHPWIKPKDTQQALSRKASAVNMEKFKKFAARKKWKQSVRLISLCQRLSRSFLSRSNMSVARSDDTLDEEDSFVMKAIIHAINDDNVPGLQHLLGSLSNYDVNQPNKHGTPPLLIAAGCGNIQILQLLIKRGSRIDVQDKGGSNAVYWAARHGHVDTLKFLSENKCPLDVKDKSGEMALHVAARYGHADVAQLLCSFGSNPNIQDKEEETPLHCAAWHGYYSVAKALCEAGCNVNIKNREGETPLLTASARGYHDIVECLAEHGADLNACDKDGHIALHLAVRRCQMEVIKTLLSQGCFVDYQDRHGNTPLHVACKDGNMPIVVALCEANCNLDISNKYGRTPLHLAANNGILDVVRYLCLMGASVEALTTDGKTAEDLARSEQHEHVAGLLARLRKDTHRGLFIQQLRPTQNLQPRIKLKLFGHSGSGKTTLVESLKCGLLRSFFRRRRPRLSSTNSSRFPPSPLASKPTVSVSINNLYPGCENVSVRSRSMMFEPGLTKGMLEVFVAPTHHPHCSADDQSTKAIDIQNAYLNGVGDFSVWEFSGNPVYFCCYDYFAANDPTSIHVVVFSLEEPYEIQLNQVIFWLSFLKSLVPVEEPIAFGGKLKNPLQVVLVATHADIMNVPRPAGGEFGYDKDTSLLKEIRNRFGNDLHISNKLFVLDAGASGSKDMKVLRNHLQEIRSQIVSVCPPMTHLCEKIISTLPSWRKLNGPNQLMSLQQFVYDVQDQLNPLASEEDLRRIAQQLHSTGEINIMQSETVQDVLLLDPRWLCTNVLGKLLSVETPRALHHYRGRYTVEDIQRLVPDSDVEELLQILDAMDICARDLSSGTMVDVPALIKTDNLHRSWADEEDEVMVYGGVRIVPVEHLTPFPCGIFHKVQVNLCRWIHQQSTEGDADIRLWVNGCKLANRGAELLVLLVNHGQGIEVQVRGLETEKIKCCLLLDSVCSTIENVMATTLPGLLTVKHYLSPQQLREHHEPVMIYQPRDFFRAQTLKETSLTNTMGGYKESFSSIMCFGCHDVYSQASLGMDIHASDLNLLTRRKLSRLLDPPDPLGKDWCLLAMNLGLPDLVAKYNTSNGAPKDFLPSPLHALLREWTTYPESTVGTLMSKLRELGRRDAADFLLKASSVFKINLDGNGQEAYASSCNSGTSYNSISSVVSR
notes: bait in anti-Flag immunoprecipitation; also called full length DAPk; not shown: N-terminal Flag tag
B1: in data set [1], the binding result is “binds”.

B2: DAP1-Flag (C-terminal Flag-tagged death-associated protein 1) (other, UniProt P51397 2-102, looked up)
chain: SSPPEGKLETKAGHPPAVKAGGMRIVQKHPHTGDTKEEKDKDDQEWESPSPPKPTVFISGVIARGDKDFPPAAAQVAHQKPHASMDKHPSPRTQHIQQPRK
notes: Irrelevant Flag-tagged control protein; not shown: C-terminal Flag tag
As to B2, in data set [2], the binding result was “no binding”.
